Measured values reported in the supplement of paper PMC10065799, “High-throughput profiling of sequence recognition by tyrosine kinases and SH2 domains using bacterial peptide display” (eLife, 2023).

Experiments:
[1] = test system: AncSZ; assay: phosphorylation enrichment, bacterial display (enrichment ratio); higher = better substrate or ligand; peptides without Tyr show the background
[2] = target: EPHB1 (UniProt P54762); assay: as above
[3] = target: EPHB2 (UniProt P29323); assay: as above
[4] = target: FGFR1 (UniProt P11362); assay: as above
FGFR1, sequence (P11362 whole entry, looked up): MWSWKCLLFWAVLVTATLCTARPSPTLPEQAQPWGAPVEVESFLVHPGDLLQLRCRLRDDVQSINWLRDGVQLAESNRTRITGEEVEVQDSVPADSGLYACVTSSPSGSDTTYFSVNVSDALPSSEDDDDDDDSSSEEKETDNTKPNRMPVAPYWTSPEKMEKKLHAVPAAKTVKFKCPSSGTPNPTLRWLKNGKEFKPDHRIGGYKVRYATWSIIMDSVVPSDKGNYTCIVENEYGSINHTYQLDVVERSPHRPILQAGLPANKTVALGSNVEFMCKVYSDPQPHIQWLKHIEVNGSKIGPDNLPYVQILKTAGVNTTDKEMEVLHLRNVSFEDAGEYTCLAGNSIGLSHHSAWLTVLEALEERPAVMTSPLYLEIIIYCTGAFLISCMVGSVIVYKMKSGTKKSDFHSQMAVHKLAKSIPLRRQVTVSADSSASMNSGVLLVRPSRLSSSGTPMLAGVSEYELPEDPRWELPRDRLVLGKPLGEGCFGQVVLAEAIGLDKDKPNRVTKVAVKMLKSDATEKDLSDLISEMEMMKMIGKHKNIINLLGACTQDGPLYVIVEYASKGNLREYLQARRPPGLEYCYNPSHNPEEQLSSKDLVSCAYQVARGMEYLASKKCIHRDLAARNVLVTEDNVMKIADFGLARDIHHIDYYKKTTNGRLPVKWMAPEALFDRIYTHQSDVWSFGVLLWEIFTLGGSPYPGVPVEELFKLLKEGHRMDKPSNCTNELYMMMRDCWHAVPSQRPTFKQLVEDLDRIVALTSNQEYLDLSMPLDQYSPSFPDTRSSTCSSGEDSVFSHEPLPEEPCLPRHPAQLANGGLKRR

[5] = target: FGFR3 (UniProt P22607); assay: as above
[6] = test system: Fer (mouse); assay: as above
[7] = target: Fes (UniProt P07332); assay: as above
Fes, sequence (P07332 whole entry, looked up): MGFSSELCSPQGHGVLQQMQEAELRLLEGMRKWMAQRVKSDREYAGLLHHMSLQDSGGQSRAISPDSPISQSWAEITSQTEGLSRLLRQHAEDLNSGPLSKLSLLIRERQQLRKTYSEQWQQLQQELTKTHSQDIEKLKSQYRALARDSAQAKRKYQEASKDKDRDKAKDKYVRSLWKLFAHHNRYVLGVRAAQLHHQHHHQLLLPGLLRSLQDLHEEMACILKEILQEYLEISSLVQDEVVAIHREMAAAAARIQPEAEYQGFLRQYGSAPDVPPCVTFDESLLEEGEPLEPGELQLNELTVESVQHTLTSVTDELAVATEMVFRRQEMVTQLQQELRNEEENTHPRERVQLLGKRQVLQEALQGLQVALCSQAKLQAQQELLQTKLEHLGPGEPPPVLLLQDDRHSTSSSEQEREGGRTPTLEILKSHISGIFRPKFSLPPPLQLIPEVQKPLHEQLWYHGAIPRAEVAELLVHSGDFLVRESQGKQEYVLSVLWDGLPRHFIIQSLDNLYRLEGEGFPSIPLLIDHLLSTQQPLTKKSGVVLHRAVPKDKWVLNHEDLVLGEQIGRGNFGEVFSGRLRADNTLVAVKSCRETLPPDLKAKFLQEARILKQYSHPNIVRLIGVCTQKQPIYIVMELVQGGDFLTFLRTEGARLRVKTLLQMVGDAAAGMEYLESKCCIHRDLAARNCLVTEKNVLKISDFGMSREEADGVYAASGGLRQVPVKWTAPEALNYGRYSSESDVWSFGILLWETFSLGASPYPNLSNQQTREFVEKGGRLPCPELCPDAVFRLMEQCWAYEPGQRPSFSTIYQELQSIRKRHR

[8] = target: Fyn (UniProt P06241); assay: as above
Fyn, sequence (P06241 whole entry, looked up): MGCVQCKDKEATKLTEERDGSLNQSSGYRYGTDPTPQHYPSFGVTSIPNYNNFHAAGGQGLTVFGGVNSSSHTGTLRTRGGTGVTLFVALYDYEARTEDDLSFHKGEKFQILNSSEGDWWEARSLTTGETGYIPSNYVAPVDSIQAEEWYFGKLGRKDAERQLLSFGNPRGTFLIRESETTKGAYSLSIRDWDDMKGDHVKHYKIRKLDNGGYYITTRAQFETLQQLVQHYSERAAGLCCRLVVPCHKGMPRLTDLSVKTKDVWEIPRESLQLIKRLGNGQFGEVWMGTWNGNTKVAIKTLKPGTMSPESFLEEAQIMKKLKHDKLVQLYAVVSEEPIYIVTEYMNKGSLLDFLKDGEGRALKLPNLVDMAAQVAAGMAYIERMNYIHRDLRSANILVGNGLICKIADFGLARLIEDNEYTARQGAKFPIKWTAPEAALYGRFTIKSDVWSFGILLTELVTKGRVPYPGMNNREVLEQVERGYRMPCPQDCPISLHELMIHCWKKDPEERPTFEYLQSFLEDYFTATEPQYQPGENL

[9] = target: Hck (UniProt P08631); assay: as above
Hck, sequence (P08631 whole entry, looked up): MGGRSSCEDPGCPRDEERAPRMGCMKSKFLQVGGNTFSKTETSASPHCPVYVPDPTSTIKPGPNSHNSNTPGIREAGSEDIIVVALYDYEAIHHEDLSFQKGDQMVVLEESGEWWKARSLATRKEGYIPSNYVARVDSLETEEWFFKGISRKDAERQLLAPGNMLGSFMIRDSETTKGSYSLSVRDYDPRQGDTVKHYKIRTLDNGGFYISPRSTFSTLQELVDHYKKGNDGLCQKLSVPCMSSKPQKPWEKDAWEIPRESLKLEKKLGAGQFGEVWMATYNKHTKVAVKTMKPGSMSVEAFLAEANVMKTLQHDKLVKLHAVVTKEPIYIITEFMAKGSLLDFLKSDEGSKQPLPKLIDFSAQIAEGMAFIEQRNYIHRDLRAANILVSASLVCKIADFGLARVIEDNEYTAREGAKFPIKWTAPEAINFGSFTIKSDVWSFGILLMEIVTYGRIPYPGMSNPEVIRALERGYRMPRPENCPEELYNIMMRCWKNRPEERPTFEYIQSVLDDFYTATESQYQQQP

[10] = target: Jak2 (UniProt O60674); assay: as above
[11] = target: MERTK (UniProt Q12866); assay: as above
[12] = test system: c-Abl (mouse); assay: as above
[13] = test system: c-Src; assay: as above
[14] = target: Grb2 SH2 (UniProt P62993); assay: SH2 binding enrichment of the phosphorylated peptide, bacterial display (enrichment ratio); higher = better substrate or ligand; peptides without Tyr show the background
[15] = target: SHP2-C SH2; assay: as above
[16] = target: c-Src SH2; assay: as above
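Throughout, for SH2 binding enrichment of the phosphorylated peptide, bacterial display: peptide library displayed on the E. coli surface as eCPX fusions, selected cells deep-sequenced, score is each peptide's frequency after selection divided by its frequency in the input.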
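Throughout, for phosphorylation enrichment, bacterial display: 11-residue human phosphosite peptides and single-mutation variants displayed on the E. coli surface, counted by deep sequencing, each peptide's frequency after selection divided by its frequency in the unselected input library; frequency after pTyr selection over input frequency; kinase dosed for 20-30% of maximal phosphorylation in three min.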

EPHB2, sequence (P29323 whole entry, looked up): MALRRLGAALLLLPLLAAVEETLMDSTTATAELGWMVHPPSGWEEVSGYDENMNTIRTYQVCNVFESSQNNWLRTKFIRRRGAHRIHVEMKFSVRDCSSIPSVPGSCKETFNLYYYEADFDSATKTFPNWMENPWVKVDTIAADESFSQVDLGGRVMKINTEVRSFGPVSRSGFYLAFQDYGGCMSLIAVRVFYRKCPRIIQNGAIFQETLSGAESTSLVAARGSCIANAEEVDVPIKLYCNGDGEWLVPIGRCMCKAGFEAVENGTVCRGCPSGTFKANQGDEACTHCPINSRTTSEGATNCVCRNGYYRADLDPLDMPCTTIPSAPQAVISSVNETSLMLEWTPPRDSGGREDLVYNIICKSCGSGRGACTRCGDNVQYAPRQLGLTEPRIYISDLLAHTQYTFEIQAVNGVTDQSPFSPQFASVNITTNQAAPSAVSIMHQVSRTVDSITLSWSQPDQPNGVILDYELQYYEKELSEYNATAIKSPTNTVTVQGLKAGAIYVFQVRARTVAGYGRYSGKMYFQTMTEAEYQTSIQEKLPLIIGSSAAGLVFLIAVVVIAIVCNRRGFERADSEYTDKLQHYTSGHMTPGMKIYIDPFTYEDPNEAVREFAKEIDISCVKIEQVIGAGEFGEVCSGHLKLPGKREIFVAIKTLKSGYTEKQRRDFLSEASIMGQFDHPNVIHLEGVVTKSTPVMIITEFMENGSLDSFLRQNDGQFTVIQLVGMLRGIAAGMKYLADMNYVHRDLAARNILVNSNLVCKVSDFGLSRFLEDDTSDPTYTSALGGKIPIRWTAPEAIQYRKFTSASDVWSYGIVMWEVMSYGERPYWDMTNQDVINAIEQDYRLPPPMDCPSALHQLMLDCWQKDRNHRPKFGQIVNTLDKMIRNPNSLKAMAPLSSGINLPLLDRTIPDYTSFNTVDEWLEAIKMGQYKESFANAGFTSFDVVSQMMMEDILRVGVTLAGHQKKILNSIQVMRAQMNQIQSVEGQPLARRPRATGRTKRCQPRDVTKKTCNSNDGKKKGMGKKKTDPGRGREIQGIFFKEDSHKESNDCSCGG
EPHB1, sequence (P54762 whole entry, looked up): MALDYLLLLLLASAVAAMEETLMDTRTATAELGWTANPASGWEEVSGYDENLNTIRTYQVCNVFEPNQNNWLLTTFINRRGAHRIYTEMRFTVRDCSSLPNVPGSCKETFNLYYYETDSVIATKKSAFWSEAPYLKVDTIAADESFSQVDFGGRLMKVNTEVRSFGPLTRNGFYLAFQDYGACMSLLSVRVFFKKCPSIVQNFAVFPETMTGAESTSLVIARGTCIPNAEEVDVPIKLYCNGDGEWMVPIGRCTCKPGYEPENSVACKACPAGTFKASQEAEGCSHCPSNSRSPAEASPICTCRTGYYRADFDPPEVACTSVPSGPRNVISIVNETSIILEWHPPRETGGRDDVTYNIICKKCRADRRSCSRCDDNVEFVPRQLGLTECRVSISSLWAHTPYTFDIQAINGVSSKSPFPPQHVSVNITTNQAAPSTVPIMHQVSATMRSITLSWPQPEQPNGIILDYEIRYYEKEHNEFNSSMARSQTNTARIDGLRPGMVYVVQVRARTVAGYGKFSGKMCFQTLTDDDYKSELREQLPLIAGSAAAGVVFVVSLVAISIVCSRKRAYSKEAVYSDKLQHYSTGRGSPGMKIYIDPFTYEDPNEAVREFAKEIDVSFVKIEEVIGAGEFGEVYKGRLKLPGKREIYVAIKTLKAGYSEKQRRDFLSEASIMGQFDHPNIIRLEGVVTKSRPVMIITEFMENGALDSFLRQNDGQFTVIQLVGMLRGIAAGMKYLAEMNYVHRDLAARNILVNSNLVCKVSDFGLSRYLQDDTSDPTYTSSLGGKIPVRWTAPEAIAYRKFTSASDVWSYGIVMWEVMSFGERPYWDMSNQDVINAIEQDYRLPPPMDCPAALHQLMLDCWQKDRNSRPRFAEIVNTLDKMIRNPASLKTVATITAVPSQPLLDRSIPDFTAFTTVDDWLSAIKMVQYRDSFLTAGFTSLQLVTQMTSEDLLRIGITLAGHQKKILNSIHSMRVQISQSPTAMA

Sequence	SH2 binding enrichment [14]	SH2 binding enrichment [15]	SH2 binding enrichment [16]	phosphorylation enrichment [1]	phosphorylation enrichment [2]	phosphorylation enrichment [3]	phosphorylation enrichment [4]	phosphorylation enrichment [5]	phosphorylation enrichment [6]	phosphorylation enrichment [7]	phosphorylation enrichment [8]	phosphorylation enrichment [9]	phosphorylation enrichment [10]	phosphorylation enrichment [11]	phosphorylation enrichment [12]	phosphorylation enrichment [13]
TFGVAYRAKDK [CDK11B_Y453_V452A_YF]	0.842	0.674	0.507	1.08	0.472	0.575	0.418	0.484	0.342	1.03	0.437	0.537	1.09	0.358	0.498	0.282
TGGLEYIVPLM [CLCN4_Y548]	0.869	0.675	0.52	2.14	0.797	0.787	3	2.29	0.379	0.965	0.436	0.42	2.32	0.364	0.937	0.417
TGNGYYFRVFS [MYBPC3_Y1136_I1131T]	0.87	0.753	0.492	1.04	0.707	0.657	0.542	0.766	0.594	1.3	0.334	0.436	1.41	0.353	0.818	0.332
TGVRDYIHVVD [GALE_Y241]	0.81	0.658	0.549	0.846	0.499	0.531	0.587	0.593	0.413	1.01	0.426	0.493	0.71	0.331	0.586	0.381
TKDTFYKQPVF [GBA_Y451_M455V]	0.905	0.66	0.417	0.634	0.409	0.523	0.406	0.473	0.308	0.766	0.386	0.312	0.695	0.417	0.764	0.421
TLQSMYGCDLG [HLA-B_Y123_V127L]	0.674	0.591	0.586	1.18	0.836	0.522	0.491	0.858	0.659	1.38	0.576	0.591	1.06	0.518	1.06	0.597
TMKSRYMELYD [BBS2_Y644]	0.809	1.2	4.93	0.812	0.535	0.608	0.489	0.556	0.426	0.868	0.475	0.694	0.808	0.456	0.624	0.73
TNFSLYLRSLE [MTM1_Y71_R69S_YF]	0.708	0.91	0.687	1.2	0.754	0.491	0.41	0.744	0.438	1.38	0.368	0.432	1.36	0.42	0.908	0.385
TPTFPYLLPKS [PLD2_Y580_YF]	1.01	1.01	0.587	0.623	0.44	0.464	0.503	0.406	0.382	0.63	0.501	0.423	0.519	0.51	0.499	0.451
TQNAVYSAANF [DDX5_Y535_G533A_YF]	0.958	0.704	0.631	0.634	3.15	4.24	0.519	0.515	6.31	0.694	10.3	12	0.526	8.98	7.53	8.46
TQNAVYSAANY [DDX5_Y535_G533A]	0.88	0.956	0.708	0.643	2.46	3.99	0.586	0.619	2.8	0.924	8.89	11.1	0.527	5.57	4.56	6.96
TSIGNYYKPWF [DHCR24_Y299_N294T]	0.844	2.71	1.27	1	16.3	15.7	5.29	4.18	0.438	0.868	0.59	1.03	11.5	10.1	14.6	0.707
TSNQEYLYLSM [FGFR1_Y766_D768Y]	0.812	0.553	0.447	2.64	2.28	1.83	12.5	8.18	0.845	1.31	2.08	2.67	3.5	5.28	0.975	2.88
TTASRYLKVSD [MYOM2_Y871_N869S]	0.534	0.54	0.515	0.489	0.347	0.293	0.366	0.467	0.377	0.636	0.373	0.311	0.434	0.313	0.54	0.362
TTKAKYKTPTF [PLD2_Y573_YF]	0.778	0.693	0.509	0.417	0.305	0.235	0.224	0.309	0.357	0.476	0.326	0.4	0.416	0.374	0.551	0.39
TVSSDYLHPQF [CCPG1_Y569_F566S_YF]	0.848	0.704	0.527	1.8	0.823	0.538	0.514	0.753	0.495	0.927	0.404	0.444	0.779	0.411	0.877	0.457
TWQSMYGCDVG [HLA-B_Y123_L119W]	0.899	0.661	0.684	1.02	0.933	0.63	0.533	0.802	0.548	1.22	0.531	0.498	1.37	0.6	1.03	0.735
TYGVLYKARNK [CDK2_Y19_V18L]	0.962	0.624	0.406	0.539	0.398	0.532	0.394	0.483	0.438	0.691	2.88	2.86	0.565	0.689	0.519	3.29
VAFVYYKSIGP [ADGRL4_Y302]	0.838	0.75	0.574	1.41	0.678	0.653	0.656	0.872	0.658	1.6	0.432	0.524	1.3	0.442	0.907	0.465
VASSLYDIFAR [GLB1_Y294_L297F]	1.02	0.884	0.714	1.09	1.46	1.81	0.637	0.714	3.12	0.948	6.66	8.55	0.927	11.4	1.25	6.38
VDTFWYKLLKR [EPM2A_Y86_F88L]	1.04	0.66	0.646	0.971	0.493	0.548	0.439	0.644	0.456	1.06	0.372	0.331	0.937	0.342	0.748	0.347
VGTKRYMASEV [ACVRL1_Y375_P378S]	1.06	0.599	0.45	0.564	0.406	0.364	0.411	0.333	0.38	0.602	0.4	0.398	0.533	0.389	0.509	0.513

Now from value to sequence, other results behind:

SH2 binding enrichment [14]	SH2 binding enrichment [15]	SH2 binding enrichment [16]	Sequence	phosphorylation enrichment [1]	phosphorylation enrichment [2]	phosphorylation enrichment [3]	phosphorylation enrichment [4]	phosphorylation enrichment [5]	phosphorylation enrichment [6]	phosphorylation enrichment [7]	phosphorylation enrichment [8]	phosphorylation enrichment [9]	phosphorylation enrichment [10]	phosphorylation enrichment [11]	phosphorylation enrichment [12]	phosphorylation enrichment [13]
0.484	0.624	0.478	TEVIWYKGDEE	1.72	0.516	0.606	0.445	0.704	0.393	1.55	0.445	0.335	1.45	0.51	0.691	0.601
0.965	0.726	0.463	TGDFGYRAPGF [TNS2_Y668_YF]	0.724	0.501	0.414	0.542	0.601	0.44	0.784	0.6	0.409	0.724	0.542	1.02	0.593
0.586	0.52	18.6	TLERHYEELQA [SPTBN2_Y834]	1.04	0.648	0.522	0.472	0.677	1.7	1.06	0.541	0.591	0.947	0.578	0.836	0.505
0.711	2.78	10.3	TTPYNYSYIFK [RAB14_Y8_A4T]	0.895	9.01	2.71	1.24	0.893	0.97	0.658	0.593	0.861	0.655	5.37	0.706	0.712
0.626	0.701	1.08	TVVVPYEPPEV [TP53_Y220_S215T]	1.08	0.548	0.439	0.528	0.62	0.512	1.16	0.475	0.458	1.35	0.549	0.89	0.537
1.08	0.731	4.54	TWEKPYECVQC [ZNF24_Y335_G331W]	0.904	0.521	0.601	0.516	0.648	4.82	0.964	0.489	0.623	0.84	0.492	0.534	0.887
0.702	0.755	0.579	TYGQVYKGPHV [TNIK_Y40_R43P]	0.68	0.586	0.633	0.534	0.468	0.398	0.751	12.4	7.7	0.826	0.618	0.666	9.04
1.22	1.51	1.01	VASIFYTLVIP [OR8K3_Y277]	1.83	0.978	0.769	1.72	1.63	2.79	1.49	0.502	0.661	1.45	5.43	0.882	0.945
1.02	0.98	0.683	VDEERYDIEGK [TNNI3_Y112_A116G]	1.44	0.737	0.74	0.539	0.754	0.561	1.3	0.506	0.623	1.3	0.491	0.896	0.509
0.713	0.682	0.436	VDLIVYLWTNP [TK2_Y181_R183W]	1.15	0.643	0.501	0.483	0.955	0.841	1.29	0.421	0.456	1.21	0.397	0.897	0.423
0.694	0.772	0.415	VGGRIYIDDAL [PKLR_Y218_G222A]	0.86	0.51	0.497	0.542	0.612	0.547	1.06	0.462	0.486	0.767	0.402	0.737	0.419
